± gives the uncertainty stated by the source.
Assay: self-splicing fitness, log relative to wild type (ln ratio); higher = more splicing; Tetrahymena group I intron in knt gene, E. coli kanamycin selection, DiMSum; sequences stand for … in CUCUCU…GGAGGGAAAAGUUAUCAGGCAUGCACCUGGUAGCUAGUCUUUAAACCAAUAGAUUGCAUCGGUUUAAAAGGCAAGACCGUCAAAUUGCGGGAAAGGGGUCAACAGCCGUUCAGUACCAAGUCUCAGGGGAAACUUUGAGAUGGCCUUGCAAAGGGUAUGGUAAUAAGCUGACGGACAUGGUCCUAACCACGCAGCCAAGUCCUAAGUCAACAGAUCUUCUGUUGAUAUGGAUGCAGUUCACAGACUAAAUGUCGGUCGGGGAAGAUGUAUUCUUCUCAUAAGAUAUAGUCGGACCUCUCCUUAAUGGGAGCUAGCGGAUGAAGUGAUGCAACACUGGAGCCGCUGGGAACUAAUUUGUAUGCGAAAGUAUAUUGAUUAGUUUUGGAGUACUCGUGGUCG
Method in brief: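 DiMSum derived fitness as the error-weighted combination of fold changes across replicates, kanamycin versus no kanamycin, normalised to wild type. E. coli BL21(DE3) held the library, which randomised all eight P1ex-region intron nucleotides within the knt kanamycin-resistance gene on pET-22b(+). Six replicate transformations grew overnight at 37°C or 30°C on LB agar with or without 25 μg/mL kanamycin, also containing 100 μg/mL carbenicillin, 50 μM IPTG and 0.2% rhamnose, and pooled colonies were amplicon-sequenced on an Illumina HiSeq 2500.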

| Sequence | self-splicing fitness (ln) (30 °C) | self-splicing fitness (ln) (37 °C) |
| --- | --- | --- |
| CGGGAGCAAUAUUACGUGCU | -3.7 ± 0.21 | -2.87 ± 0.22 |
| CGGGAGCAAUAUUACGUGUA | -4.05 ± 0.39 | -1.47 ± 0.22 |
| CGGGAGCAAUAUUACGUUUA | -3.47 ± 0.31 | -1.8 ± 0.28 |
| CGGUAGCAAUAUUACGAAAA | -2.62 ± 0.35 | -2.77 ± 0.39 |
| CGGUAGCAAUAUUACGAAGG | -0.178 ± 0.15 | 0.565 ± 0.16 |
| CGGUAGCAAUAUUACGAGAA | -2.77 ± 0.32 | -1.85 ± 0.33 |
| CGGUAGCAAUAUUACGAGGG | -3.72 ± 0.36 | -2.96 ± 0.25 |
| CGGUAGCAAUAUUACGCACA | -0.755 ± 0.26 | -0.0778 ± 0.19 |
| CGGUAGCAAUAUUACGCCAG | -0.874 ± 0.092 | -1.03 ± 0.14 |
| CGGUAGCAAUAUUACGCCCC | -1.29 ± 0.24 | -0.667 ± 0.29 |
| CGGUAGCAAUAUUACGCCGG | -1.45 ± 0.078 | -0.573 ± 0.12 |
| CGGUAGCAAUAUUACGCGUC |  | -1.81 ± 0.39 |
| CGGUAGCAAUAUUACGGAAG | -0.936 ± 0.13 | -0.67 ± 0.14 |
| CGGUAGCAAUAUUACGGAUG | -0.393 ± 0.063 | 0.221 ± 0.096 |
| CGGUAGCAAUAUUACGGCUG | -4.13 ± 0.25 | -1.05 ± 0.16 |
| CGGUAGCAAUAUUACGGGGC |  | -2.39 ± 0.34 |
| CGGUAGCAAUAUUACGGUAG | -0.557 ± 0.071 | -0.0774 ± 0.089 |
| CGGUAGCAAUAUUACGUCCU | -0.294 ± 0.063 | 0.121 ± 0.08 |
| CGGUAGCAAUAUUACGUUAU | -2.66 ± 0.25 |  |
| CGUAAGCAAUAUUACGAAGG | -1.78 ± 0.12 | -1.16 ± 0.2 |
| CGUAAGCAAUAUUACGACAC | -2.84 ± 0.14 | -2.55 ± 0.16 |

| Sequence | self-splicing fitness (ln) (30 °C) | self-splicing fitness (ln) (37 °C) |
| --- | --- | --- |
| CGUAAGCAAUAUUACGACUU | -3.09 ± 0.23 | -1.35 ± 0.22 |
| CGUAAGCAAUAUUACGAGAU | -4.04 ± 0.47 | -2.55 ± 0.41 |
| CGUAAGCAAUAUUACGAUAA | -2.66 ± 0.23 | -1.86 ± 0.24 |
| CGUAAGCAAUAUUACGAUGC |  | -2.04 ± 0.26 |
| CGUAAGCAAUAUUACGCAUC |  | -2.03 ± 0.26 |
| CGUAAGCAAUAUUACGCCAC | -2.55 ± 0.42 | -0.936 ± 0.3 |
| CGUAAGCAAUAUUACGCCGG | -1.38 ± 0.11 | -1.04 ± 0.14 |
| CGUAAGCAAUAUUACGCCUU | -2.51 ± 0.23 | -2.05 ± 0.31 |
| CGUAAGCAAUAUUACGCUCU | -0.698 ± 0.17 | -1.35 ± 0.2 |
| CGUAAGCAAUAUUACGCUGA | -3.48 ± 0.42 | -1.42 ± 0.18 |
| CGUAAGCAAUAUUACGGAAG | -2.64 ± 0.19 | -1.41 ± 0.17 |
| CGUAAGCAAUAUUACGGAGC | -4.17 ± 0.39 |  |
| CGUAAGCAAUAUUACGGCAG | -0.537 ± 0.091 | -0.781 ± 0.095 |
| CGUAAGCAAUAUUACGGCGA | -2.31 ± 0.2 | -2.02 ± 0.25 |
| CGUAAGCAAUAUUACGGGGA | -3.42 ± 0.22 | -1.73 ± 0.14 |
| CGUAAGCAAUAUUACGGGGG | -2.61 ± 0.14 | -2.69 ± 0.19 |
| CGUAAGCAAUAUUACGGUAU | -3.71 ± 0.37 | -2.56 ± 0.26 |
| CGUAAGCAAUAUUACGGUUC |  | -2.59 ± 0.26 |
| CGUAAGCAAUAUUACGUAAU | -3.23 ± 0.16 | -2.64 ± 0.18 |
| CGUAAGCAAUAUUACGUCAA | -2.62 ± 0.26 | -1.56 ± 0.24 |
| CGUAAGCAAUAUUACGUCAC |  | -2.59 ± 0.44 |

| Sequence | self-splicing fitness (ln) (30 °C) | self-splicing fitness (ln) (37 °C) |
| --- | --- | --- |
| CGUAAGCAAUAUUACGUUAA | -3.03 ± 0.23 | -2.47 ± 0.29 |
| CGUAAGCAAUAUUACGUUUC | -3.97 ± 0.24 | -1.92 ± 0.2 |
| CGUAAGCAAUAUUACGUUUG | -1.2 ± 0.08 | -0.438 ± 0.1 |
| CGUAAGCAAUAUUACGUUUU | -4.1 ± 0.18 | -3.05 ± 0.19 |
| CGUCAGCAAUAUUACGAAGC |  | -2.3 ± 0.5 |
| CGUCAGCAAUAUUACGACCG | -0.855 ± 0.098 | -0.475 ± 0.12 |
| CGUCAGCAAUAUUACGACCU | -0.193 ± 0.13 | 0.326 ± 0.15 |
| CGUCAGCAAUAUUACGACGC |  | -3.2 ± 0.32 |
| CGUCAGCAAUAUUACGAUCA | -0.722 ± 0.096 | 0.228 ± 0.12 |
| CGUCAGCAAUAUUACGCACU | -0.336 ± 0.071 | 0.339 ± 0.079 |
| CGUCAGCAAUAUUACGCCAU | -3.87 ± 0.29 | -2.81 ± 0.3 |
| CGUCAGCAAUAUUACGCUUU | -3.76 ± 0.27 | -1.66 ± 0.17 |
| CGUCAGCAAUAUUACGGAAU | -4.05 ± 0.37 | -2.83 ± 0.21 |
| CGUCAGCAAUAUUACGGAUG | -3.63 ± 0.2 | -1.74 ± 0.14 |
| CGUCAGCAAUAUUACGGCAU | -0.76 ± 0.074 | -0.608 ± 0.081 |
| CGUCAGCAAUAUUACGGGAA | -3.68 ± 0.43 | -1.18 ± 0.18 |
| CGUCAGCAAUAUUACGGGCA | 0.0754 ± 0.085 | 0.572 ± 0.096 |
| CGUCAGCAAUAUUACGUACA | -0.533 ± 0.072 | 0.154 ± 0.087 |
| CGUCAGCAAUAUUACGUAGU | -2.26 ± 0.12 | -1.24 ± 0.13 |
| CGUCAGCAAUAUUACGUAUC | -3.54 ± 0.19 | -2.06 ± 0.19 |
| CGUCAGCAAUAUUACGUCUA | -0.831 ± 0.13 | -0.968 ± 0.17 |

| Sequence | self-splicing fitness (ln) (30 °C) | self-splicing fitness (ln) (37 °C) |
| --- | --- | --- |
| CGUCAGCAAUAUUACGUGUU | -3.17 ± 0.11 | -0.86 ± 0.099 |
| CGUGAGCAAUAUUACGACAC | -2.5 ± 0.27 |  |
| CGUGAGCAAUAUUACGACCU | -1.34 ± 0.28 | -1.17 ± 0.3 |
| CGUGAGCAAUAUUACGCACC | -1.07 ± 0.23 |  |
| CGUGAGCAAUAUUACGCCGA |  | -1.96 ± 0.41 |
| CGUGAGCAAUAUUACGCCGG | -2.32 ± 0.24 | -2.58 ± 0.39 |
| CGUGAGCAAUAUUACGCCGU |  | -1.1 ± 0.25 |
| CGUGAGCAAUAUUACGGAAC |  | -1.28 ± 0.44 |
| CGUGAGCAAUAUUACGGCUA | -1.68 ± 0.14 | -1.12 ± 0.14 |
| CGUGAGCAAUAUUACGGGAG | -3.67 ± 0.24 | -2.52 ± 0.19 |
| CGUGAGCAAUAUUACGGGCG | -2.93 ± 0.46 | -1.63 ± 0.43 |
| CGUGAGCAAUAUUACGGGCU | -1.5 ± 0.18 | -2.67 ± 0.39 |
| CGUGAGCAAUAUUACGGGGA | -3.34 ± 0.4 | -3.62 ± 0.42 |
| CGUGAGCAAUAUUACGGGUU | -3.99 ± 0.46 | -2.65 ± 0.29 |
| CGUGAGCAAUAUUACGUCCC |  | -1.09 ± 0.42 |
| CGUGAGCAAUAUUACGUCCU |  | -1.64 ± 0.32 |
| CGUUAGCAAUAUUACGAACU | -0.929 ± 0.075 | 0.785 ± 0.11 |
| CGUUAGCAAUAUUACGACAC | -2.43 ± 0.21 | -0.891 ± 0.19 |

Reference: the supplement of paper PMC7877785
